Legend:
[1] = target: T1, EGFR-Wt (Homo sapiens, UniProt P00533); assay: MaMTH EGFR-interactor screen, lentiviral preys against EGFR-wildtype bait (interaction score); format: cell-based; settings: MaMTH interaction score of prey with EGFR-Wt bait, mean
T1 construct: with the advantage of testing full-length integral membrane proteins; (GGGGS)2 linker-Cub (human ubiquitin aa 35-76)-GAL4(1-147)-mNFkB(364-550) (C); expressed in transfected cells
In short: (§1)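 5×GAL4UAS-luciferase HEK293T reporter cells were lentivirally infected with preys (MOI ~0.3-0.4) and puromycin-selected ≥48 h. They were then transfected in triplicate with the EGFR bait, and luciferase was read 24 h later. Score is fold-change over averaged negative-control preys; >1 denotes interaction.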

[2] = tested on: EGFR-Wt; assay: as above; format: cell-based, human; settings: ratio of EGFR-Wt mean to EGFR-L858R mean interaction score
In short: as §1

[3] = target: T2, EGFR-L858R (Homo sapiens, UniProt P00533, L858R); assay: MaMTH EGFR-interactor screen, lentiviral preys against EGFR-L858R bait (interaction score); format: cell-based; settings: MaMTH interaction score of prey with EGFR-L858R bait
T2 construct: with the advantage of testing full-length integral membrane proteins; (GGGGS)2 linker-Cub (human ubiquitin aa 35-76)-GAL4(1-147)-mNFkB(364-550) (C); expressed in transfected cells
In short: as §1

B1: SHC4 (protein, UniProt Q6S5L8 1-630, looked up)
SHC-transforming protein 4: MRERGQDSLAGLVLYVGLFGHPGMLHRAKYSRFRNESITSLDEGSSGGSVGNKGSPQPPHPALAPHLPTEDATLPSQESPTPLCTLIPRMASMKLANPATLLSLKNFCLGTKEVPRLKLQESRDPGSSGPSSPETSLSRSGTAPPPQQDLVGHRATALTPDSCPLPGPGEPTLRSRQDRHFLQHLLGMGMNYCVRYMGCVEVLQSMRSLDFGMRTQVTREAISRLCEAVPGANGAIKKRKPPVKFLSTVLGKSNLQFSGMNIKLTISTCSLTLMNLDNQQIIANHHMQSISFASGGDPDTTDYVAYVAKDPVNQRACHILECHNGMAQDVISTIGQAFELRFKQYLKNPSLNTSCESEEVHIDSHAEEREDHEYYNEIPGKQPPVGGVSDMRIKVQATEQMAYCPIQCEKLCYLPGNSKCSSVYENCLEQSRAIGNVHPRGVQSQRDTSLLKHTCRVDLFDDPCYINTQALQSTPGSAGNQRSAQPLGSPWHCGKAPETVQPGATAQPASSHSLPHIKQQLWSEECYHGKLSRKAAESLLVKDGDFLVRESATSPGQYVLSGLQGGQAKHLLLVDPEGKVRTKDHVFDNVGHLIRYHMDNSLPIISSGSEVSLKQPVRKDNNPALLHSNK
EGFR-Wt mean [1]: 5.31 | Wt/L858R [2]: 0.47 | EGFR-L858R mean [3]: 11.39

B2: CISH (protein, UniProt Q9NSE2 1-258, looked up)
Cytokine-inducible …: MVLCVQGPRPLLAVERTGQRPLWAPSLELPKPVMQPLPAGAFLEEVAEGTPAQTESEPKVLDPEEDLLCIAKTFSYLRESGWYWGSITASEARQHLQKMPEGTFLVRDSTHPSYLFTLSVKTTRGPTNVRIEYADSSFRLDSNCLSRPRILAFPDVVSLVQHYVASCTADTRSDSPDPAPTPALPMPKEDAPSDPALPAPPPATAVHLKLVQPFVRRSSARSLQHLCRLVINRLVADVDCLPLPRRMADYLRQYPFQL
EGFR-Wt mean [1]: 1.29 | Wt/L858R [2]: 0.49 | EGFR-L858R mean [3]: 2.66

B3: VAV1 (protein, UniProt P15498 1-845, looked up)
Proto-oncogene vav: MELWRQCTHWLIQCRVLPPSHRVTWDGAQVCELAQALRDGVLLCQLLNNLLPHAINLREVNLRPQMSQFLCLKNIRTFLSTCCEKFGLKRSELFEAFDLFDVQDFGKVIYTLSALSWTPIAQNRGIMPFPTEEESVGDEDIYSGLSDQIDDTVEEDEDLYDCVENEEAEGDEIYEDLMRSEPVSMPPKMTEYDKRCCCLREIQQTEEKYTDTLGSIQQHFLKPLQRFLKPQDIEIIFINIEDLLRVHTHFLKEMKEALGTPGAANLYQVFIKYKERFLVYGRYCSQVESASKHLDRVAAAREDVQMKLEECSQRANNGRFTLRDLLMVPMQRVLKYHLLLQELVKHTQEAMEKENLRLALDAMRDLAQCVNEVKRDNETLRQITNFQLSIENLDQSLAHYGRPKIDGELKITSVERRSKMDRYAFLLDKALLICKRRGDSYDLKDFVNLHSFQVRDDSSGDRDNKKWSHMFLLIEDQGAQGYELFFKTRELKKKWMEQFEMAISNIYPENATANGHDFQMFSFEETTSCKACQMLLRGTFYQGYRCHRCRASAHKECLGRVPPCGRHGQDFPGTMKKDKLHRRAQDKKRNELGLPKMEVFQEYYGLPPPPGAIGPFLRLNPGDIVELTKAEAEQNWWEGRNTSTNEIGWFPCNRVKPYVHGPPQDLSVHLWYAGPMERAGAESILANRSDGTFLVRQRVKDAAEFAISIKYNVEVKHIKIMTAEGLYRITEKKAFRGLTELVEFYQQNSLKDCFKSLDTTLQFPFKEPEKRTISRPAVGSTKYFGTAKARYDFCARDRSELSLKEGDIIKILNKKGQQGWWRGEIYGRVGWFPANYVEEDYSEYC
EGFR-Wt mean [1]: 1.45 | Wt/L858R [2]: 0.54 | EGFR-L858R mean [3]: 2.68

B4: PDCD6IP (protein, UniProt Q8WUM4 2-868, looked up)
Programmed cell death …: ATFISVQLKKTSEVDLAKPLVKFIQQTYPSGGEEQAQYCRAAEELSKLRRAAVGRPLDKHEGALETLLRYYDQICSIEPKFPFSENQICLTFTWKDAFDKGSLFGGSVKLALASLGYEKSCVLFNCAALASQIAAEQNLDNDEGLKIAAKHYQFASGAFLHIKETVLSALSREPTVDISPDTVGTLSLIMLAQAQEVFFLKATRDKMKDAIIAKLANQAADYFGDAFKQCQYKDTLPKEVFPVLAAKHCIMQANAEYHQSILAKQQKKFGEEIARLQHAAELIKTVASRYDEYVNVKDFSDKINRALAAAKKDNDFIYHDRVPDLKDLDPIGKATLVKSTPVNVPISQKFTDLFEKMVPVSVQQSLAAYNQRKADLVNRSIAQMREATTLANGVLASLNLPAAIEDVSGDTVPQSILTKSRSVIEQGGIQTVDQLIKELPELLQRNREILDESLRLLDEEEATDNDLRAKFKERWQRTPSNELYKPLRAEGTNFRTVLDKAVQADGQVKECYQSHRDTIVLLCKPEPELNAAIPSANPAKTMQGSEVVNVLKSLLSNLDEVKKEREGLENDLKSVNFDMTSKFLTALAQDGVINEEALSVTELDRVYGGLTTKVQESLKKQEGLLKNIQVSHQEFSKMKQSNNEANLREEVLKNLATAYDNFVELVANLKEGTKFYNELTEILVRFQNKCSDIVFARKTERDELLKDLQQSIAREPSAPSIPTPAYQSSPAGGHAPTPPTPAPRTMPPTKPQPPARPPPPVLPANRAPSATAPSPVGAGTAAPAPSQTPGSAPPPQAQGPPYPTYPGYPGYCQMPMPMGYNPYAYGQYNMPYPPVYHQSPGQAPYPGPQQPSYPFPQPPQQSYYPQQ
EGFR-Wt mean [1]: 7.39 | Wt/L858R [2]: 0.53 | EGFR-L858R mean [3]: 14.05

B5: EPS8 (protein, UniProt Q12929 1-822, looked up)
Epidermal growth factor …: MNGHISNHPSSFGMYPSQMNGYGSSPTFSQTDREHGSKTSAKALYEQRKNYARDSVSSVSDISQYRVEHLTTFVLDRKDAMITVDDGIRKLKLLDAKGKVWTQDMILQVDDRAVSLIDLESKNELENFPLNTIQHCQAVMHSCSYDSVLALVCKEPTQNKPDLHLFQCDEVKANLISEDIESAISDSKGGKQKRRPDALRMISNADPSIPPPPRAPAPAPPGTVTQVDVRSRVAAWSAWAADQGDFEKPRQYHEQEETPEMMAARIDRDVQILNHILDDIEFFITKLQKAAEAFSELSKRKKNKKGKRKGPGEGVLTLRAKPPPPDEFLDCFQKFKHGFNLLAKLKSHIQNPSAADLVHFLFTPLNMVVQATGGPELASSVLSPLLNKDTIDFLNYTVNGDERQLWMSLGGTWMKARAEWPKEQFIPPYVPRFRNGWEPPMLNFMGATMEQDLYQLAESVANVAEHQRKQEIKRLSTEHSSVSEYHPADGYAFSSNIYTRGSHLDQGEAAVAFKPTSNRHIDRNYEPLKTQPKKYAKSKYDFVARNNSELSVLKDDILEILDDRKQWWKVRNASGDSGFVPNNILDIVRPPESGLGRADPPYTHTIQKQRMEYGPRPADTPPAPSPPPTPAPVPVPLPPSTPAPVPVSKVPANITRQNSSSSDSGGSIVRDSQRHKQLPVDRRKSQMEEVQDELIHRLTIGRSAAQKKFHVPRQNVPVINITYDSTPEDVKTWLQSKGFNPVTVNSLGVLNGAQLFSLNKDELRTVCPEGARVYSQITVQKAALEDSSGSSELQEIMRRRQEKISAAASDSGVESFDEGSSH
EGFR-Wt mean [1]: 2.62 | Wt/L858R [2]: 0.47 | EGFR-L858R mean [3]: 5.58

B6: PAK1 (protein, UniProt Q13153 2-545, looked up)
Serine/threonine-protein …: SNNGLDIQDKPPAPPMRNTSTMIGAGSKDAGTLNHGSKPLPPNPEEKKKKDRFYRSILPGDKTNKKKEKERPEISLPSDFEHTIHVGFDAVTGEFTGMPEQWARLLQTSNITKSEQKKNPQAVLDVLEFYNSKKTSNSQKYMSFTDKSAEDYNSSNALNVKAVSETPAVPPVSEDEDDDDDDATPPPVIAPRPEHTKSVYTRSVIEPLPVTPTRDVATSPISPTENNTTPPDALTRNTEKQKKKPKMSDEEILEKLRSIVSVGDPKKKYTRFEKIGQGASGTVYTAMDVATGQEVAIKQMNLQQQPKKELIINEILVMRENKNPNIVNYLDSYLVGDELWVVMEYLAGGSLTDVVTETCMDEGQIAAVCRECLQALEFLHSNQVIHRDIKSDNILLGMDGSVKLTDFGFCAQITPEQSKRSTMVGTPYWMAPEVVTRKAYGPKVDIWSLGIMAIEMIEGEPPYLNENPLRALYLIATNGTPELQNPEKLSAIFRDFLNRCLEMDVEKRGSAKELLQHQFLKIAKPLSSLTPLIAAAKEATKNNH
EGFR-Wt mean [1]: 1.50 | Wt/L858R [2]: 0.55 | EGFR-L858R mean [3]: 2.70

B7: CDC25C (protein, UniProt P30307 2-473, looked up)
M-phase inducer phosphatase 3: STELFSSTREEGSSGSGPSFRSNQRKMLNLLLERDTSFTVCPDVPRTPVGKFLGDSANLSILSGGTPKRCLDLSNLSSGEITATQLTTSADLDETGHLDSSGLQEVHLAGMNHDQHLMKCSPAQLLCSTPNGLDRGHRKRDAMCSSSANKENDNGNLVDSEMKYLGSPITTVPKLDKNPNLGEDQAEEISDELMEFSLKDQEAKVSRSGLYRSPSMPENLNRPRLKQVEKFKDNTIPDKVKKKYFSGQGKLRKGLCLKKTVSLCDITITQMLEEDSNQGHLIGDFSKVCALPTVSGKHQDLKYVNPETVAALLSGKFQGLIEKFYVIDCRYPYEYLGGHIQGALNLYSQEELFNFFLKKPIVPLDTQKRIIIVFHCEFSSERGPRMCRCLREEDRSLNQYPALYYPELYILKGGYRDFFPEYMELCEPQSYCPMHHQDHKTELLRCRSQSKVQEGERQLREQIALLVKDMSP
EGFR-Wt mean [1]: 2.12 | Wt/L858R [2]: 0.54 | EGFR-L858R mean [3]: 3.94

B8: HDAC7 (protein, UniProt Q8WUI4 1-952, looked up)
Histone deacetylase 7: MDLRVGQRPPVEPPPEPTLLALQRPQRLHHHLFLAGLQQQRSVEPMRLSMDTPMPELQVGPQEQELRQLLHKDKSKRSAVASSVVKQKLAEVILKKQQAALERTVHPNSPGIPYRTLEPLETEGATRSMLSSFLPPVPSLPSDPPEHFPLRKTVSEPNLKLRYKPKKSLERRKNPLLRKESAPPSLRRRPAETLGDSSPSSSSTPASGCSSPNDSEHGPNPILGSEALLGQRLRLQETSVAPFALPTVSLLPAITLGLPAPARADSDRRTHPTLGPRGPILGSPHTPLFLPHGLEPEAGGTLPSRLQPILLLDPSGSHAPLLTVPGLGPLPFHFAQSLMTTERLSGSGLHWPLSRTRSEPLPPSATAPPPPGPMQPRLEQLKTHVQVIKRSAKPSEKPRLRQIPSAEDLETDGGGPGQVVDDGLEHRELGHGQPEARGPAPLQQHPQVLLWEQQRLAGRLPRGSTGDTVLLPLAQGGHRPLSRAQSSPAAPASLSAPEPASQARVLSSSETPARTLPFTTGLIYDSVMLKHQCSCGDNSRHPEHAGRIQSIWSRLQERGLRSQCECLRGRKASLEELQSVHSERHVLLYGTNPLSRLKLDNGKLAGLLAQRMFVMLPCGGVGVDTDTIWNELHSSNAARWAAGSVTDLAFKVASRELKNGFAVVRPPGHHADHSTAMGFCFFNSVAIACRQLQQQSKASKILIVDWDVHHGNGTQQTFYQDPSVLYISLHRHDDGNFFPGSGAVDEVGAGSGEGFNVNVAWAGGLDPPMGDPEYLAAFRIVVMPIAREFSPDLVLVSAGFDAAEGHPAPLGGYHVSAKCFGYMTQQLMNLAGGAVVLALEGGHDLTAICDASEACVAALLGNRVDPLSEEGWKQKPNLNAIRSLEAVIRVHSKYWGCMQRLASCPDSWVPRVPGADKEEVEAVTALASLSVGILAEDRPSEQLVEEEEPMNL
EGFR-Wt mean [1]: 2.37 | Wt/L858R [2]: 0.55 | EGFR-L858R mean [3]: 4.35
